Consider 4 molecules from PMC7160669 (Biochemistry, 2019).

Substitutions are numbered along the chain they refer to.

B1: ChdC (protein)
chain: MSQAAETLDGWYSLHLFYAVDWASLRIVPKDERDALVTEFQSFLENTATVRSSKSGDQAIYNITGQKADLLLWFLRPEMKSLNHIENEFNKLRIADFLIPTYSYVSVIELSNYLAGKSDEDPYENPHIKARLYPELPHSDYICFYPMNKRRNETYNWYMLTMEERQKLMYDHGMIGRKYAGKIKQFITGSVGFDDFEWGVTLFSDDVLQFKKIVYEMRFDETTARYGEFGSFFVGHIINTNEFDQFFAIS
modifications: coproporphyrin III bound to ChdC
B2: CpfC (protein)
chain: MTKKMGLLVMAYGTPYKESDIEPYYTDIRHGKRPSEEELQDLKDRYEFIGGLSPLAGTTDDQADALVSALNKAYADVEFKLYLGLKHISPFIEDAVEQMHNDGITEAITVVLAPHYSSFSVGSYDKRADEEAAKYGIQLTHVKHYYEQPKFIEYWTNKVNETLAQIPEEEHKDTVLVVSAHSLPKGLIEKNNDPYPQELEHTALLIKEQSNIEHIAIGWQSEGNTGTPWLGPDVQDLTRDLYEKHQYKNFIYTPVGFVCEHLEVLYDNDYECKVVCDDIGANYYRPKMPNTHPLFIGAIIDEIKSIF
modifications: coproporphyrin III bound to CpfC
B3: CpfC (protein)
chain: B2 chain

Test [1] concerns the target T1, ChdC (SaChdC; coproheme decarboxylase) (Staphylococcus aureus, UniProt A6QEP0).
T1 sequence (A6QEP0 1-250): B1 chain
Briefly: tryptophan fluorescence quenching. The test is classed as binding. As to conditions: 50 mM Tris pH 8, 150 mM NaCl, 25 °C; Langmuir-Hill fit.

Test [2] deals with T2, CpfC (coproporphyrin ferrochelatase; HemH) (Staphylococcus aureus, UniProt P64125).
T2 sequence (P64125 1-307): B2 chain with I300V
Briefly: tryptophan fluorescence quenching. It is filed as binding. As to conditions: 50 mM Tris pH 8, 150 mM NaCl, 25 °C.

The target in the test “CpfC” is B3. Briefly: UV-vis titration.
In test [3] the target is T3, ChdC (Staphylococcus aureus, UniProt Q2FJ56).
T3 chain: B1 chain
Briefly: UV-vis titration.

In test [4] the target is T3, ChdC. Briefly: UV-vis titration and fluorescence quenching.

As usually defined, the Kd is a measure of binding affinity in units of concentration. Low values mean a tighter complex, high ones a looser complex.

As for `CC1=C(CCC(=O)O)c2cc3nc(cc4[nH]c(cc5[nH]c(cc1n2)c(C)c5CCC(=O)O)c(CCC(=O)O)c4C)C(CCC(=O)O)=C3C` [coproporphyrin], the KD result was “ChdC binds coproporphyrin with an affinity that resembles that for coproheme” in test [1] and “affinities of CpfC and/or ChdC for coproporphyrin and/or coproheme were measured titrimetrically” in test [2].
In the test with CpfC, B1 came in with a dissociation constant Kd of 40 µM. In other words, the double-digit micromolar range.
As to B2, binding with ChdC [3] was characterised by a dissociation constant (Kd) of 80 µM.
In the case of B3, in the test with ChdC [4], the affinity, expressed as Kd, was 17 µM. This lies in the double-digit micromolar range.
